# According to PMC7954794, “Protein context shapes the specificity of SH3 domain-mediated interactions in vivo” (Nature Communications, 2021):
# Tested on: growth of yeast strains under 51 stress conditions
# Test: Growth assays in 51 stress conditions (Fig. 1E-F, S2D, S5B)
# Assay type: cell-based, Saccharomyces cerevisiae
# Design: key to Growth (Fig. S2D) / growth of ABP1 SH3-swapped strains in stress condition: log2 colony size, average of median per strain (growth score)
# Settings: ABP1 SH3-swapped strains
# In short: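 Colony sizes at 74 h on 51 stress media (37 °C) were log2 transformed, corrected for plate effects, and averaged across two plates as per-plate medians (growth score). Strains arrayed in 12 replicates with WT border, grown first on YPD for two days at 30 °C.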
molecule,measurement,setting,value
"MYO5 (protein, UniProt Q04439 1-1219, looked up) Myosin-5: MAILKRGARKKVHQEPAKRSANIKKATFDSSKKKEVGVSDLTLLSKISDEAINENLKKRFLNATIYTYIGHVLISVNPFRDLGIYTDAVMNEYKGKNRLEVPPHVFAIAESMYYNMKSYNENQCVIISGESGAGKTEAAKRIMQYIAAASSTHTESIGKIKDMVLATNPLLESFGCAKTLRNNNSSRHGKYLEIKFNNQFEPCAGNITNYLLEKQRVVSQIKNERNFHIFYQFTKGASDAYRQTFGVQKPEQYVYTAAAGCISAETIDDLQDYQETLKAMRVIGLGQEEQDQIFRMLAAILWIGNVSFIENEEGNAQVRDTSVTDFVAYLLQIDSQLLIKSLVERIMETNHGMKRGSVYHVPLNIVQADAVRDALAKAIYNNLFDWIVSRVNKSLQAFPGAEKSIGILDIYGFEIFEHNSFEQICINYVNEKLQQIFIQLTLKSEQETYEREKIQWTPIKYFDNKVVCDLIEARRPPGIFAAMNDSVATAHADSNAADQAFAQRLNLFTTNPHFDLRSNKFVIKHYAGDVTYDIDGITDKNKDQLQKDLVELIGTTTNTFLATIFPDTVDRESKRRPPTAGDKIIKSANDLVETLSKAQPSYIRTIKPNETKSPNDYDDRQVLHQIKYLGLQENVRIRRAGFAYRQVFEKFVERFYLLSPHCSYAGDYTWQGDTLDAVKYILQDSSIPQQEYQLGVTSVFIKTPETLFALEHMRDRYWHNMAARIQRAWRRFLQRRIDAATKIQRTIRERKEGNKYEKLRDYGTKVLGGRKERRSMSLLGYRAFMGDYLSCNESKSKGAYIKRQVSIKEKVIFSIHGEALHTKFGRSAQRLKKTFLLTPTTLYIVGQTLVQNAMTYTQDYKIDVRNIQAVSLTNLQDDWVAIKLASSGQPDPLINTYFKTELITHLKRLNDKIQIKIGSAIEYQKKPGKLHSVKCQINESAPKYGDIYKSSTISVRRGNPPNSQVHKKPRKKSSISSGYHASSSQATRRPVSIAAAQHVPTAPASRHSKKPAPPPPGMQNKAATRRSVPNPASTLTASQSNARPSPPTAATRATPAATPAAAAMGSGRQANIPPPPPPPPPSSKPKEPMFEAAYDFPGSGSPSELPLKKGDVIYITREEPSGWSLGKLLDGSKEGWVPTAYMKPHSGNNNIPTPPQNRDVPKPVLNSVQHDNTSANVIPAAAQASLGDGLANALAARANKMRLESDDEEANEDEEEDDW",Growth (Fig. S2D),Bathophenanthroline.0.1uM,10.7807
same,Growth (Fig. S2D),Bathophenanthroline.10uM,10.5943
same,Growth (Fig. S2D),Bathophenanthroline.1uM,10.7288
same,Growth (Fig. S2D),CaCl2.100mM,10.8763
same,Growth (Fig. S2D),CaCl2.250mM,10.7748
same,Growth (Fig. S2D),CaCl2.500mM,10.1951
same,Growth (Fig. S2D),Caffein.10mM,10.0771
same,Growth (Fig. S2D),Caffein.2mM,10.9616
same,Growth (Fig. S2D),CdCl2.100uM,9.383
same,Growth (Fig. S2D),CdCl2.10uM,10.8746
same,Growth (Fig. S2D),CdCl2.50uM,9.758
same,Growth (Fig. S2D),CuSO4.1mM,10.0515
same,Growth (Fig. S2D),CuSO4.5mM,7.47
same,Growth (Fig. S2D),Cycloheximide.0.05.uM,11.0185
same,Growth (Fig. S2D),Cycloheximide.0.2.uM,10.5753
same,Growth (Fig. S2D),Cycloheximide.0.5.uM,10.0157
same,Growth (Fig. S2D),DMSO.2.,11.0566
same,Growth (Fig. S2D),DMSO.6.,9.912
same,Growth (Fig. S2D),DMSO.8.,9.351
same,Growth (Fig. S2D),Ethanol.2.,10.6973
same,Growth (Fig. S2D),Ethanol.6.,10.1096
same,Growth (Fig. S2D),Ethanol.8.,9.896
same,Growth (Fig. S2D),Galactose.2.,10.7371
same,Growth (Fig. S2D),Glycerol.2.,8.938
same,Growth (Fig. S2D),Hydroxyurea.25mM,10.701
same,Growth (Fig. S2D),Hygromycin.190uM,10.9824
same,Growth (Fig. S2D),Hygromycin.19uM,10.9737
same,Growth (Fig. S2D),Hygromycin.95uM,11.0723
same,Growth (Fig. S2D),MMS.0.004.,10.9048
same,Growth (Fig. S2D),MMS.0.02.,10.5139
same,Growth (Fig. S2D),MMS.0.04.,9.517
same,Growth (Fig. S2D),Menadione.100uM,10.5627
same,Growth (Fig. S2D),Menadione.200uM,10.4133
same,Growth (Fig. S2D),Menadione.50uM,10.7993
same,Growth (Fig. S2D),NaCl.0.25M,10.7283
same,Growth (Fig. S2D),NaCl.1M,9.177
same,Growth (Fig. S2D),Nitroquinoline.10uM,10.6793
same,Growth (Fig. S2D),Nitroquinoline.50uM,10.4598
same,Growth (Fig. S2D),Nystatin.0.01uM,11.0134
same,Growth (Fig. S2D),Nystatin.0.1uM,10.9398
same,Growth (Fig. S2D),Raffinose.2.,10.9979
same,Growth (Fig. S2D),Rapamycin.10nM,9.833
same,Growth (Fig. S2D),Rapamycin.50nM,9.517
same,Growth (Fig. S2D),SC.pH3,10.3672
same,Growth (Fig. S2D),SC.pH6,10.9549
same,Growth (Fig. S2D),SDS.0.01.,10.9651
same,Growth (Fig. S2D),SDS.0.02.,10.9575
same,Growth (Fig. S2D),SDS.0.05.,10.8115
same,Growth (Fig. S2D),Sorbitol.10mM,10.9933
same,Growth (Fig. S2D),Sorbitol.1mM,11.0521
same,Growth (Fig. S2D),Sorbitol.5mM,10.9248
"PEX13 (protein, UniProt P80667 1-386, looked up) Peroxisomal membrane protein …: MSSTAVPRPKPWETSASLEEPQRNAQSLSAMMTSNQQDSRPTEESNNSNSASESAPEVLPRPAALNSSGTYGESNTIPGIYGNSNYGIPYDNNPYSMNSIYGNSIGRYGYGGSYYGNNYGSFYGGGYGAGAGYGMNNGSGLGESTKATFQLIESLIGAVTGFAQMLESTYMATHNSFFTMISVAEQFGNLKEMLGSFFGIFAIMKFLKKILYRATKGRLGIPPKNFAESEGSKNKLIEDFQKFNDSGTINSNEKATRRKISWKPLLFFLMAVFGFPYLLNKFITKLQTSGTIRASQGNGSEPIDPSKLEFARALYDFVPENPEMEVALKKGDLMAILSKKDPLGRDSDWWKVRTKNGNIGYIPYNYIEIIKRRKKIEHVDDETRTH",Growth (Fig. S2D),Bathophenanthroline.0.1uM,10.7929
same,Growth (Fig. S2D),Bathophenanthroline.10uM,10.6448
same,Growth (Fig. S2D),Bathophenanthroline.1uM,10.7999
same,Growth (Fig. S2D),CaCl2.100mM,10.8263
same,Growth (Fig. S2D),CaCl2.250mM,10.7201
same,Growth (Fig. S2D),CaCl2.500mM,10.3034
same,Growth (Fig. S2D),Caffein.10mM,10.0127
same,Growth (Fig. S2D),Caffein.2mM,10.9279
same,Growth (Fig. S2D),CdCl2.100uM,9.606
same,Growth (Fig. S2D),CdCl2.10uM,10.8888
same,Growth (Fig. S2D),CdCl2.50uM,9.97
same,Growth (Fig. S2D),CuSO4.1mM,10.4898
same,Growth (Fig. S2D),CuSO4.5mM,8.152
same,Growth (Fig. S2D),Cycloheximide.0.05.uM,11.0541
same,Growth (Fig. S2D),Cycloheximide.0.2.uM,10.6387
same,Growth (Fig. S2D),Cycloheximide.0.5.uM,10.1719
same,Growth (Fig. S2D),DMSO.2.,11.0404
same,Growth (Fig. S2D),DMSO.6.,10.0301
same,Growth (Fig. S2D),DMSO.8.,9.367
same,Growth (Fig. S2D),Ethanol.2.,10.7664
same,Growth (Fig. S2D),Ethanol.6.,10.3235
same,Growth (Fig. S2D),Ethanol.8.,10.0926
same,Growth (Fig. S2D),Galactose.2.,10.787
same,Growth (Fig. S2D),Glycerol.2.,9.849
same,Growth (Fig. S2D),Hydroxyurea.25mM,10.7235
same,Growth (Fig. S2D),Hygromycin.190uM,10.9621
same,Growth (Fig. S2D),Hygromycin.19uM,10.9745
same,Growth (Fig. S2D),Hygromycin.95uM,11.0265
same,Growth (Fig. S2D),MMS.0.004.,10.9502
same,Growth (Fig. S2D),MMS.0.02.,10.7047
same,Growth (Fig. S2D),MMS.0.04.,10.0276
same,Growth (Fig. S2D),Menadione.100uM,10.6371
same,Growth (Fig. S2D),Menadione.200uM,10.4195
same,Growth (Fig. S2D),Menadione.50uM,10.8434
same,Growth (Fig. S2D),NaCl.0.25M,10.6874
same,Growth (Fig. S2D),NaCl.1M,9.71
same,Growth (Fig. S2D),Nitroquinoline.10uM,10.7399
same,Growth (Fig. S2D),Nitroquinoline.50uM,10.726
same,Growth (Fig. S2D),Nystatin.0.01uM,11.0207
same,Growth (Fig. S2D),Nystatin.0.1uM,11.0033
same,Growth (Fig. S2D),Raffinose.2.,10.9918
same,Growth (Fig. S2D),Rapamycin.10nM,9.862
same,Growth (Fig. S2D),Rapamycin.50nM,9.428
same,Growth (Fig. S2D),SC.pH3,10.3898
same,Growth (Fig. S2D),SC.pH6,10.9788
same,Growth (Fig. S2D),SDS.0.01.,10.9752
same,Growth (Fig. S2D),SDS.0.02.,10.9697
same,Growth (Fig. S2D),SDS.0.05.,10.895
same,Growth (Fig. S2D),Sorbitol.10mM,10.9735
same,Growth (Fig. S2D),Sorbitol.1mM,11.0343
same,Growth (Fig. S2D),Sorbitol.5mM,10.9175
